Laboratory results reported in CN101066999A.

Tests used:
[1] = substrate: 人OPN (Osteopontin, R&D Systems) (human) (UniProt P10451); test: sandwich ELISA: mAbs coated at 1.0 μg/ml; OPN at 6.25-100 pg/mL for this mAb and 6.25-100 ng/mL for the commercial mAb
[2] = substrate: 人OPN (Osteopontin, R&D Systems) (human) (UniProt P10451); test: sandwich ELISA: mAb coated at 1.0 μg/ml, OPN standard, rabbit anti-human OPN polyclonal serum as detector

B1: 重组抗OPN单克隆抗体 7G2 (antibody, V domains shown)
VL: DILMTQTPLSLPVSLGDQASISCRSSQSLVHSNGNTYLHWYLQKPGQSPKLLISKVSNRFSGVPDRFSGSGSGTDFTLKISRVEAEDLGVYFCSQSTHVPWTFGGGTKLEIKR
VH: MAQVQLEQSGPELVKPGASVKMSCKSSGYTFTTYVMHVKQKPGQGLEWIGYINPYNDGSKYNEKFKGKATLTSDKSSNTAYMELSSLTSEDSAVYYSDSHYGGSPAYWGQGTLVTVSA
Which fold higher sensitivity for human OPN than the commercial mAb MAB14331 [1] does the source give for B1 here?
The fold higher sensitivity for human OPN than the commercial mAb MAB14331 was 1000 fold.

And the 灵敏度 (detection sensitivity for OPN) [2]?
The 灵敏度 (detection sensitivity for OPN) was 6.52 pg/mL.
